Molecular target: His-Rab7 (UniProt P51149 1-207)
Assay: bead-based flow cytometry

Sequence of His-Rab7 (P51149 whole entry): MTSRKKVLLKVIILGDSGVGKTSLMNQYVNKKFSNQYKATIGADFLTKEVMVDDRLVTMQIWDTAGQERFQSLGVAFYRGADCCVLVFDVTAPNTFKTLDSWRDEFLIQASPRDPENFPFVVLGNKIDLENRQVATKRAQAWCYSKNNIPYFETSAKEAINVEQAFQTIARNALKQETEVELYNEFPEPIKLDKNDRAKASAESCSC

Kd: 1870 ± 250 nM
B1: GST-RILP (Rab binding domain of RILP only) (domain or fragment, UniProt Q96NA2 240-316, looked up)
chain: QCRFSREEFEQILQERNELKAKVFLLKEELAYFQRELLTDHRVPGLLLEAMKVAVRKQRKKIKAKMLGTPEEAESSE

Source: paper PMC6033261 (Methods in molecular biology (Clifton, N.J.), 2015)
